Data on 1 molecule can be found in publication PMC8097366, “The Dual Function of KDM5C in Both Gene Transcriptional Activation and Repression Promotes Breast Cancer Cell Growth and Tumorigenesis” (Advanced Science, 2021).

This experiment deals with T1, HA-tagged KDM5C, full length (UniProt P41229 1-1560).
T1 construct: KDM5C (JARID1C, SMCX), histone demethylase; the truncations run to residue 1560; KDM5C was sub-cloned into pCDH-3×Flag-3×HA-EF1-puro and into pLV-EF1-puro(cs2.0)-N-3×HA; also called HA-KDM5C; KDM5C FL; source: HEK293T, transfected, in lysate, nuclear extract or cytosolic extract; HEK293T, purified on anti-HA agarose
Kind of experiment: co-IP; cytosolic extracts from transfected HEK293T cells; IP with anti-HA antibody; immunoblotting. As to conditions: partners not purified. (In general: In western blotting, separated proteins are transferred to a membrane and probed.)

T1 sequence (P41229 whole entry, the tested form may be a part): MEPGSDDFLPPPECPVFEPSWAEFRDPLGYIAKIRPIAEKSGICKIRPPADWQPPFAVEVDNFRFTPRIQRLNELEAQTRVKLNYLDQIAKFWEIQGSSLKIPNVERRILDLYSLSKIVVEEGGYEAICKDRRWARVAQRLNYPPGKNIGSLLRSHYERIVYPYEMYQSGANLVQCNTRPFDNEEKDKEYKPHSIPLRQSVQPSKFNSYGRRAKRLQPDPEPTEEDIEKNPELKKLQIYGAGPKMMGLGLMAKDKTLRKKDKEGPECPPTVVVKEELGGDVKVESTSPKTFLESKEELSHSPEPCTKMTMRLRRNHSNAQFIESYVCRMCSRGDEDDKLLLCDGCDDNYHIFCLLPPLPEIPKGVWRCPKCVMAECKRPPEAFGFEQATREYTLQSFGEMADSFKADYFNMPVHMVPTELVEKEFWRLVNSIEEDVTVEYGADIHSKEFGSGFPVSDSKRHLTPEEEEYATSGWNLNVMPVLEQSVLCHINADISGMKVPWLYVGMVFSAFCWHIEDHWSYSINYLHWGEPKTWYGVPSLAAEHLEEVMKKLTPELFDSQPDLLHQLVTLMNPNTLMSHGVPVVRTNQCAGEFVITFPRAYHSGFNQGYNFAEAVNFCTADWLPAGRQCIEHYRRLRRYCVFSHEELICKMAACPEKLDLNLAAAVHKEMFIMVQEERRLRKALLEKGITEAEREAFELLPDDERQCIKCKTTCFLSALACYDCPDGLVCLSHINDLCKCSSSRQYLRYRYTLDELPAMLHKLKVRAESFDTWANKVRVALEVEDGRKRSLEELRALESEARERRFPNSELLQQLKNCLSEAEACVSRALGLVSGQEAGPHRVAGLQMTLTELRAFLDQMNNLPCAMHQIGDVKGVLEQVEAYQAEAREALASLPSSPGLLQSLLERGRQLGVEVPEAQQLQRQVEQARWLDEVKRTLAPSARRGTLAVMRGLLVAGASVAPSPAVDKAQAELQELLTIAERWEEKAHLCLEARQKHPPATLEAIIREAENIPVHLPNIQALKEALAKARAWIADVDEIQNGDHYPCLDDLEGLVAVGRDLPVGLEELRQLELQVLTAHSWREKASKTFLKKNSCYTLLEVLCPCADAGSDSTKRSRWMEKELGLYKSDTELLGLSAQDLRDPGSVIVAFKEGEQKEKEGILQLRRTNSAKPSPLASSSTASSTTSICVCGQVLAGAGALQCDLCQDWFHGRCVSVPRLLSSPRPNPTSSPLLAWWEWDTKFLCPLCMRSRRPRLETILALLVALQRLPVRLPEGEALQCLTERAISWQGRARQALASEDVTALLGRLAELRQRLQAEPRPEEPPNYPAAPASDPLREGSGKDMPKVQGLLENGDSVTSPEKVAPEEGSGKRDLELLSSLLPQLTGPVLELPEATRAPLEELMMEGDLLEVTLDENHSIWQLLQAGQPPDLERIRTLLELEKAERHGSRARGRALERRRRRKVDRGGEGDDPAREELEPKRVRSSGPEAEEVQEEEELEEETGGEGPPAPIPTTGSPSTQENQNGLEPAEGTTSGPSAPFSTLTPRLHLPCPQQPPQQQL

B1: Flag-tagged TBK1 (pBOBI-3×Flag-hTBK1) (enzyme, human, UniProt Q9UHD2 1-729, looked up)
chain: MQSTSNHLWLLSDILGQGATANVFRGRHKKTGDLFAIKVFNNISFLRPVDVQMREFEVLKKLNHKNIVKLFAIEEETTTRHKVLIMEFCPCGSLYTVLEEPSNAYGLPESEFLIVLRDVVGGMNHLRENGIVHRDIKPGNIMRVIGEDGQSVYKLTDFGAARELEDDEQFVSLYGTEEYLHPDMYERAVLRKDHQKKYGATVDLWSIGVTFYHAATGSLPFRPFEGPRRNKEVMYKIITGKPSGAISGVQKAENGPIDWSGDMPVSCSLSRGLQVLLTPVLANILEADQEKCWGFDQFFAETSDILHRMVIHVFSLQQMTAHKIYIHSYNTATIFHELVYKQTKIISSNQELIYEGRRLVLEPGRLAQHFPKTTEENPIFVVSREPLNTIGLIYEKISLPKVHPRYDLDGDASMAKAITGVVCYACRIASTLLLYQELMRKGIRWLIELIKDDYNETVHKKTEVVITLDFCIRNIEKTVKVYEKLMKINLEAAELGEISDIHTKLLRLSSSQGTIETSLQDIDSRLSPGGSLADAWAHQEGTHPKDRNVEKLQVLLNCMTEIYYQFKKDKAERRLAYNEEQIHKFDKQKLYYHATKAMTHFTDECVKKYEAFLNKSEEWIRKMLHLRKQLLSLTNQCFDIEEEVSKYQEYTNELQETLPQKMFTASSGIKHTMTPIYPSSNTLVEMTLGMKKLKEEMEGVVKELAENNHILERFGSLTMDGGLRNVDCL
notes: TBK1, kinase; hTBK1 in the construct's name; The end of the tag and the species are read from the printed name of the construct; also called Flag-TBK1; source: HEK293T, transfected, in cytosolic extract; HEK293T, purified (eluted with 3×Flag peptide); not shown: 3×Flag, N-terminal, kept
As to B1, the binding result is listed as “binds”.
